Target: BMPs (in the Hep3B hepcidin bioassay)

IC50 of suppression of hepcidin mRNA (qPCR) in Hep3B cells: 10 nM
B1: Full-length ERFE ΔCollagen, 43-354 del109-125, FLAG-tagged (natural protein)
chain: EPPPGNELPRGPGESRAGPAARPPEPTAERAHSVDPRDAWMLFVRQSDKGVNGKKRSRGKAKKLKFIIPPEALLKEFQLLLKGAVRQRERAEPEPCTCGPAGPVAASLAPVSATAGEDDDDVVGDVLALLAAPLAPGPRAPRVEAAFLCRLRRDALVERRALHELGVYYLPDAEGAFRRGPGLNLTSGQYRAPVAGFYALAATLHVALGEPPRRGPPRPRDHLRLLICIQSRCQRNASLEAIMGLESSSELFTISVNGVLYLQMGQWTSVFLDNASGCSLTVRSGSHFSAVLLGV
